The target of experiment [1] is Pyrococcus abyssi minichromosome maintenance protein (PabMCM), full-length, devoid of inteins (Pyrococcus abyssi). The experiment in a line: SEC; Superose 6 10/300 GL, 20 mM HEPES pH 7.4, 150 mM NaCl, 0.3 ml/min; apparent molecular weight estimated against gel-filtration standards.
Experiment [2] has the same target. The experiment in a line: cryo-EM, reference-free 2D classification; Quantifoil grids with thin carbon, plunge-frozen; ~33,000 particles, Relion 2D classification without imposed symmetry.
For experiment [3] the target is unchanged. The experiment in a line: negative-stain electron microscopy with single particle analysis; 1% uranyl acetate, FEI F20 FEG, 50,000x, MSA classification (IMAGIC-5), 3D reconstruction with EMAN2; map at 22 Å.

Several values for one entry are separate records, joined by “and”; a condition that tells them apart may be missing. Identical values can stand only once.

A word on the stoichiometry N: it is the number of molecules, sites or subunits per partner or assembly.

On to “Pyrococcus abyssi minichromosome maintenance protein (PabMCM), full-length, devoid of inteins (enzyme)”, for which the stoichiometry N in experiment [1] was 8; in experiment [2] it was 8; in experiment [3], 8 and 7.

The values above are taken from paper PMC5296750.
